Assay results: PMC8773746

Assays:
[1] = target: Human erythropoietin (Epoetin β) (human) (UniProt P01588); experiment: SPR; EPO immobilised by amine coupling on a ProteOn GLH chip (up to 3 000 RU); S100 or CaM as analyte (0.25–4 μM); 25 °C; 10 mM HEPES, 150 mM NaCl, 0.05% TWEEN 20, pH 7.4, 1 mM CaCl2; heterogeneous ligand model, values averaged over analyte concentrations (n = 5)
S100P (Homo sapiens) = S100P (Homo sapiens) (UniProt P25815); conditions: cited from earlier work
[2] = target: S100P (monomeric) (Homo sapiens) (UniProt P25815); conditions: cited from earlier work
S100P (monomeric) (Homo sapiens), sequence (P25815 whole entry): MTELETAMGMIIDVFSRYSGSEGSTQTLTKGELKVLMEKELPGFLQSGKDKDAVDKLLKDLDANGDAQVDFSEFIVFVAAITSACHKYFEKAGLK

Human S100A2 protein, sequence (P29034 4-98): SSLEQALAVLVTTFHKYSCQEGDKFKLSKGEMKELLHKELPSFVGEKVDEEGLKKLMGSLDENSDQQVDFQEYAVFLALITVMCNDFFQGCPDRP
interleukin 11, sequence (P20809 22-199): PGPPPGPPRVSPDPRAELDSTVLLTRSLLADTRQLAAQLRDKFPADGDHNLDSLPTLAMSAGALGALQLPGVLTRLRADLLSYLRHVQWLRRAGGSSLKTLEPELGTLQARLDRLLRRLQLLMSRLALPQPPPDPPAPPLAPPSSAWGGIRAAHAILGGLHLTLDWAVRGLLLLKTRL
S100P (Homo sapiens), sequence (P25815 whole entry): as the sequence (P25815 whole entry) above
S100P, sequence (P25815 whole entry): as above

Human S100A2 protein (from UniProt P29034 4-98) (natural protein)
Kd1 (heterogeneous ligand model, ligand population L1) [1]: 81 nM | Kd2 (heterogeneous ligand model, ligand population L2) [1]: 1.2 µM | ka1 (heterogeneous ligand model, ligand population L1) [1]: 2200 M⁻¹ s⁻¹ | ka2 (heterogeneous ligand model, ligand population L2) [1]: 10000 M⁻¹ s⁻¹ | kd1 (heterogeneous ligand model, ligand population L1) [1]: 0.00018 s⁻¹ | kd2 (heterogeneous ligand model, ligand population L2) [1]: 0.012 s⁻¹

S100P (from UniProt P25815)
Kd (S100P (Homo sapiens)): 64 nM

interleukin 11 (from UniProt P20809)
Kd [2]: 1 nM
